Publication PMC2968749 (Journal of immunology (Baltimore, Md. : 1950), 2009)

Biological target: the molecule itself
Experiment: nonreducing SDS-PAGE + mass spectrometry of the band

B1: native Bet v 1d in aqueous birch pollen extract (BPE) (natural protein, UniProt P43177 1-160, looked up)
chain: MGVFNYEIETTSVIPAARLFKAFILDGDNLVPKVAPQAISSVENIEGNGGPGTIKKINFPEGFPFKYVKDRVDEVDHTNFKYNYSVIEGGPVGDTLEKISNEIKIVATPDGGCVLKISNKYHTKGNHEVKAEQVKASKEMGETLLRAVESYLLAHSDAYN
- stoichiometry N: 2
